The record followed here is patent publication US20230416351A1 (Novartis, published 2023).

The experiment concerns the target T1, recombinant VEGF165 protein (human, UniProt P15692 27-191).
T1 construct: mature; the 165-residue isoform is meant; also called VEGF-A
Nature of the experiment: SPR in vitro binding, drug and recombinant VEGF165, 37 C. The method, then: Drug-specific parameters used are defined based upon which drug(s) is included in the specific simulation. These values are shown in Table 2 for brolucizumab, aflibercept, and ranibizumab. The drug:VEGF binding parameter values (the dissociation rate constant “koff” and the equilibrium binding constant “Kd”) were defined on the basis of a surface plasmon resonance (SPR) in vitro binding experiment with drug and recombinant VEGF165 protein at 37° C. according to manufacturer's instructions. The hydrodynamic radius values for drug (“rh_R”) and associated drug:VEGF complexes (“rh_VR” and “rh_RVR”) were sourced from literature reports (Caruso et. al., Mol. Pharmaceutics 2020, 17, 695-709) or from computational structure models of drug and VEGF. This includes estimated hydrodynamic radius values for the heterogenous complexes consisting of one VEGF dimer and two different VEGF antagonists (“rh_ROVR”). Drug-independent parameters used are used to describe VEGF production and distribution within and out of the eye, as well as general biophysical properties of the eye such as permeability coefficients for the Inner Limiting Membrane (ILM) and Retinal Pigment Epithelium (RPE) and the clearance rate from the aqueous chamber.

T1 sequence (P15692 other isoform, or with tags, fused parts or gaps): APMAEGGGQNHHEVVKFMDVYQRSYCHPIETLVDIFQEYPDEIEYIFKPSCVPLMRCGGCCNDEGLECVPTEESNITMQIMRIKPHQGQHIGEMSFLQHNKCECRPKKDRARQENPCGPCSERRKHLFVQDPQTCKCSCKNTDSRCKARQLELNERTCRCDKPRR

B1: brolucizumab (scFv)
scFv: MEIVMTQSPSTLSASVGDRVIITCQASEIIHSWLAWYQQKPGKAPKLLIYLASTLASGVPSRFSGSGSGAEFTLTISSLQPDDFATYYCQNVYLASTNGANFGQGTKLTVLGGGGGSGGGGSGGGGSGGGGSEVQLVESGGGLVQPGGSLRLSCTASGFSLTDYYYMTWVRQAPGKGLEWVGFIDPDDDPYYATWAKGRFTISRDNSKNTLYLQMNSLRAEDTAVYYCAGGDHNSGWGLDIWGQGTLVTVSS
notes: Humanized single-chain Fv (VL-linker-VH), ~26 kDa; also called Beovu; VEGF antagonist A
Consider B1, for which the Kd stood at 0.101 nM.
